Experiment [1] addresses CBFβ140-His (residues 1-140 of CBFβ with six histidine residues at the N-terminus) (human) (UniProt Q13951). The experiment in a line: SEC; Vif-CBFβ complexes co-expressed and purified by nickel affinity, Superdex 200 10/300 GL, 20 mM Tris-HCl pH 8.0, 150 mM NaCl, 10% glycerol; peak fractions by SDS-PAGE and Coomassie staining. In general terms: Size exclusion chromatography separates by hydrodynamic size, large species first.

Experiment [2] has the same target. The experiment in a line: SEC.
Experiment [3] deals with His-tagged CBFβ187 (mouse CBFβ, residues 1-187) (mouse) (UniProt Q08024). The experiment in a line: SEC.
Chain of UniProt Q08024 (Q08024 whole entry, the tested form may be a part): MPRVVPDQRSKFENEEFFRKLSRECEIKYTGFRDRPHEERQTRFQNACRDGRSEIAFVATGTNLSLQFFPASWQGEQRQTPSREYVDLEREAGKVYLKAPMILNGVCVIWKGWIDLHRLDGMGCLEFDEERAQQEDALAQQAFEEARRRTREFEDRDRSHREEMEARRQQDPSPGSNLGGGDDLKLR

Chain of UniProt Q13951 (Q13951 1-140): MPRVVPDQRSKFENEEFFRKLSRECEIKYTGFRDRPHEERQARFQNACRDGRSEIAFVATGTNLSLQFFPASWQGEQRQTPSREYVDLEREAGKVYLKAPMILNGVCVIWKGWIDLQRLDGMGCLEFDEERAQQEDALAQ

In general, stoichiometry N refers to a count of units in the complex or per binding partner. Substance “truncated HIV-1 Vif140 (residues 1-140) (from UniProt P12504 1-140) (domain or fragment)” gave a stoichiometry N in experiment [1] of 1. As to “full-length HIV-1 Vif (residues 1-192) (from UniProt P12504) (natural protein)”, the stoichiometry N in experiment [2], in experiment [3] and in experiment [1] was 1 throughout.

As to “truncated HIV-1 Vif176 (residues 1-176) (from UniProt P12504 1-176) (domain or fragment)”, the stoichiometry N in experiment [1] was 1.

For “Elongin B / Elongin C (residues 17 to 112) (from UniProt Q15370 1-118; Q15369 17-112) (complex)”, the stoichiometry N in experiment [2] and in experiment [3] was 1 each time.
